In article PMC9641244:

Assays:
Dmc1 E157K = molecular target: T1, Dmc1 E157K (Saccharomyces cerevisiae, UniProt P25453 1-334, E157K); assay: EMSA
T1 sequence: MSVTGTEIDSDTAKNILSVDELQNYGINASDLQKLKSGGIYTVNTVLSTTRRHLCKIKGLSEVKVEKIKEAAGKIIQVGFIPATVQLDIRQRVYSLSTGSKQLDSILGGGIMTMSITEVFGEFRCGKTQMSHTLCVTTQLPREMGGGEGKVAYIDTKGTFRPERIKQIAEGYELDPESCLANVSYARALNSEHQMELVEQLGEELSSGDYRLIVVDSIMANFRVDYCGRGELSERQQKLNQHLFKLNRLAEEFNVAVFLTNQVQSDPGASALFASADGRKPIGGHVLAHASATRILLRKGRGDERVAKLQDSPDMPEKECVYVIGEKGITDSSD

DMC1 D317A [1] = molecular target: T2, DMC1 D317A (Homo sapiens, UniProt Q14565 1-340, D317A); assay: EMSA
T2 sequence: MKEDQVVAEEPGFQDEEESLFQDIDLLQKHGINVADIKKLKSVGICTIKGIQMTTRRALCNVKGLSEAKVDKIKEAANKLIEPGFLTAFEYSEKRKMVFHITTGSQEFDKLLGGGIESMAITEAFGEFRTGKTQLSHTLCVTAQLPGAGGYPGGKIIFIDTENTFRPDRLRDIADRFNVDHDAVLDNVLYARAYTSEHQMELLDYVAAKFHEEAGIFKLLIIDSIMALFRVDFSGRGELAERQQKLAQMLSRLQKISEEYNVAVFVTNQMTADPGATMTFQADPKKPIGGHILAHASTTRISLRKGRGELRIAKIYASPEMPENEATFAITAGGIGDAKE

DMC1 D317K [2] = molecular target: T3, DMC1 D317K (Homo sapiens, UniProt Q14565 1-340, D317K); assay: EMSA
T3 sequence: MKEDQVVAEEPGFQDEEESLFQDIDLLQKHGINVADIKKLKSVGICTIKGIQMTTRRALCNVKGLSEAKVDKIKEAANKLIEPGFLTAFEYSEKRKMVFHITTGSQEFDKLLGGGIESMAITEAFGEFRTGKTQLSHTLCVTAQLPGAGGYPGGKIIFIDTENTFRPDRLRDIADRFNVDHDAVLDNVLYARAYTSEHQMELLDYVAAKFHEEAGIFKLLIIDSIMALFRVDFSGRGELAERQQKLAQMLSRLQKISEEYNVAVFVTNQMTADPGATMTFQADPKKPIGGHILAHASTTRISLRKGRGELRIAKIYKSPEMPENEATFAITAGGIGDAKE

DMC1 E162A = molecular target: T4, DMC1 E162A (Homo sapiens, UniProt Q14565 1-340, E162A); assay: EMSA
T4 sequence: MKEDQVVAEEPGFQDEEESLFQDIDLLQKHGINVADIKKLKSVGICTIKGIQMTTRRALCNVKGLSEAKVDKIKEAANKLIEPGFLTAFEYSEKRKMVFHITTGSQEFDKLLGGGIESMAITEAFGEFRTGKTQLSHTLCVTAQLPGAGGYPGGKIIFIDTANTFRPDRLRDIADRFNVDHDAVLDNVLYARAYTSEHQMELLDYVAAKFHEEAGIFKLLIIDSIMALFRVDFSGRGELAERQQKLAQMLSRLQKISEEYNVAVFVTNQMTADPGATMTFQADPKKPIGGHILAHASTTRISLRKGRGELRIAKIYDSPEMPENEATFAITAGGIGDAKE

Dmc1 D311K = molecular target: T5, Dmc1 D311K (Saccharomyces cerevisiae, UniProt P25453 1-334, D311K); assay: EMSA
T5 sequence: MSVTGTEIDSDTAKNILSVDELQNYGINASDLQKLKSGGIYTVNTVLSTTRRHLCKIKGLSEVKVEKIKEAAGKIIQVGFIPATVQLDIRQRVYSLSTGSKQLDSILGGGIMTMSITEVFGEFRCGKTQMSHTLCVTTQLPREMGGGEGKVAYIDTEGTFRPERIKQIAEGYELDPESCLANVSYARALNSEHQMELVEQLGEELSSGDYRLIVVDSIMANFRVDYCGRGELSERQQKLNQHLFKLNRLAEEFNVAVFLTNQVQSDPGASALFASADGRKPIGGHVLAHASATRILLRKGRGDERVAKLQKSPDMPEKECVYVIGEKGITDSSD

DMC1 D317A [3] = molecular target: T2, DMC1 D317A; assay: BLI
DMC1 WT = molecular target: T6, DMC1 WT (Homo sapiens, UniProt Q14565 1-340); assay: BLI
T6 sequence: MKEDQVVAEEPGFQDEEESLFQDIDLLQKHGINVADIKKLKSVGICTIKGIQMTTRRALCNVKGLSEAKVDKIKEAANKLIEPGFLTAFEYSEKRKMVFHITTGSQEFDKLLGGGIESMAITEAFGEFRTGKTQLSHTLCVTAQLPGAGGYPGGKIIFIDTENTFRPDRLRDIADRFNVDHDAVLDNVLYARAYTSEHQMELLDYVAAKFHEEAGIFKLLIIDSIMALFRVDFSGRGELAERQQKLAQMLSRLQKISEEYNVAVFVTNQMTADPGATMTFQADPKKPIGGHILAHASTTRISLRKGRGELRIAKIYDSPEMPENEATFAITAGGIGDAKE

DMC1 D317K [4] = molecular target: T3, DMC1 D317K; assay: BLI
DMC1 E162K = molecular target: T7, DMC1 E162K (Homo sapiens, UniProt Q14565 1-340, E162K); assay: BLI
T7 sequence: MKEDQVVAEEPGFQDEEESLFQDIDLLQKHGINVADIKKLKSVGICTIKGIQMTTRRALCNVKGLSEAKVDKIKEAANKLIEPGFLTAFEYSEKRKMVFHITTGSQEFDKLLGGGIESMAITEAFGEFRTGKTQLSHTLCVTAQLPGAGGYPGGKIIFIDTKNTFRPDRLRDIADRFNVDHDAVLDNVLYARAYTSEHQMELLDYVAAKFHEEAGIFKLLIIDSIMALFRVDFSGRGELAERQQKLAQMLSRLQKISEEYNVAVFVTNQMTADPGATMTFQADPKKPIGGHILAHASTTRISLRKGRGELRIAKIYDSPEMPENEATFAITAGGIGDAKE

Measured: binding result

B1: pR231 90-mer (ssDNA)
DNA: AAATCAATCTAAAGTATATATGAGTAAACTTGGTCTGACAGTTACCAATGCTTAATCAGTGAGGCACCTATCTCAGCGATCTGTCTATTT
binds: Dmc1 E157K | DMC1 D317A [1] | DMC1 D317K [2] | DMC1 E162A | Dmc1 D311K

B2: pR231 90-mer biotinylated (ssDNA)
DNA: AAATCAATCTAAAGTATATATGAGTAAACTTGGTCTGACAGTTACCAATGCTTAATCAGTGAGGCACCTATCTCAGCGATCTGTCTATTT
binds: DMC1 D317A [3] | DMC1 WT | DMC1 D317K [4] | DMC1 E162K
